1 substance from patent publication US20060183702A1 can be followed below.

The target of the test is IIbIIIa receptor on human platelets (human) (UniProt P08514).
UniProt P08514, sequence (P08514 32-1039, chain 1 of 2): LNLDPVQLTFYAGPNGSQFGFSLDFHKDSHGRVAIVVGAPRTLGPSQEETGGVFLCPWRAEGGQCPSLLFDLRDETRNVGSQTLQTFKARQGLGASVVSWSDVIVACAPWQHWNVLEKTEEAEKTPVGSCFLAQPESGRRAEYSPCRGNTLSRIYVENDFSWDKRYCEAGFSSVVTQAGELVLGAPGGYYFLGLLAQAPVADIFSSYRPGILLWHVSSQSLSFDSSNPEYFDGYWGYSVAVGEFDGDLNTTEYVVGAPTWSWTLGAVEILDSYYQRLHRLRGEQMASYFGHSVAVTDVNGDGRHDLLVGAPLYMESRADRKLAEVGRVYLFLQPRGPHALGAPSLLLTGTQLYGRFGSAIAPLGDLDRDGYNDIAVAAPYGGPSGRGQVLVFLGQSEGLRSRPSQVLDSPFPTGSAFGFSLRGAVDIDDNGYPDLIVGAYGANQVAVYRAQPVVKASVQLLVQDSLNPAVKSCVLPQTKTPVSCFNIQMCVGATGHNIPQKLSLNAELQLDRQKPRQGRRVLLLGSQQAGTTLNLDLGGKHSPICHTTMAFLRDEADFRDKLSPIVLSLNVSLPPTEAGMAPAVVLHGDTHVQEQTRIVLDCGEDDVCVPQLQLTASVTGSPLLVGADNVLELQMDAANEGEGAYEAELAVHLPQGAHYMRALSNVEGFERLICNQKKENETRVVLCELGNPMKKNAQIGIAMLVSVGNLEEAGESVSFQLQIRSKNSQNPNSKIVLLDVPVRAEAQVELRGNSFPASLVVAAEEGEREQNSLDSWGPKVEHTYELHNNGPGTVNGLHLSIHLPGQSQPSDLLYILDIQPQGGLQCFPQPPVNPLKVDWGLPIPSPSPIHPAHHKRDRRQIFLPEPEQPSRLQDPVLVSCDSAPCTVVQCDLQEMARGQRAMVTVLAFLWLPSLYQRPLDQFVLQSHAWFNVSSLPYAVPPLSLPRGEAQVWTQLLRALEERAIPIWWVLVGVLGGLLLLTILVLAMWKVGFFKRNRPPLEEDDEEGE
UniProt P08514, sequence (P05106 27-788, chain 2 of 2, further chain): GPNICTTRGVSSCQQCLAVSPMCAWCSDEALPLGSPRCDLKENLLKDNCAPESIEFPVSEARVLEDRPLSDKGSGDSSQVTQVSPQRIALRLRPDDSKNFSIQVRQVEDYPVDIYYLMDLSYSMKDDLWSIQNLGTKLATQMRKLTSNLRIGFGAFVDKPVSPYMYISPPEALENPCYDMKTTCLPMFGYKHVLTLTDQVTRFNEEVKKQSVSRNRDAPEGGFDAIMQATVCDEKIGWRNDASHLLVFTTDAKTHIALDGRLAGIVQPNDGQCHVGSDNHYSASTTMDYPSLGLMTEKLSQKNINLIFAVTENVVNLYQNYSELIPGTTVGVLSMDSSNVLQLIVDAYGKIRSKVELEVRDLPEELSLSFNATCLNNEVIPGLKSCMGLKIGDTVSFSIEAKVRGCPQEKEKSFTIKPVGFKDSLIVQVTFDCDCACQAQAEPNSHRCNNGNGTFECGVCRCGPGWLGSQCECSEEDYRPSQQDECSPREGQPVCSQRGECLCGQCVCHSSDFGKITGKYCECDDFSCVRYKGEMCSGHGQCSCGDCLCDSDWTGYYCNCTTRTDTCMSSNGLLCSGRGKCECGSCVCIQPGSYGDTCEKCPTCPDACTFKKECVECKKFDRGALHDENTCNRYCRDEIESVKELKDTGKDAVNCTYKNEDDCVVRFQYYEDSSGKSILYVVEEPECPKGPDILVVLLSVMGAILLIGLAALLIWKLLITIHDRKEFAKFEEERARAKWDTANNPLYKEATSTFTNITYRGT

In the case of Integrilin (peptide), the IC50 (read off the curve), ADP-induced platelet aggregation (AIPA) in human PRP was determined as 200 nM.
